A protein production outcome set (Wang et al. 2014)

Assay: label from the status in PepcDB records

Sequence | protein production
MGGASWADTAMGGKGRHPDKALTTVQVRALKVPGRYADGNGLYLVVEPSGSKRWLLRTIVQGRRRDIGLGGAGLVTLAEAREKALAYRKLARDGGDPLAERRKARATVPTFAEAAEQVHEEHKASWKNPKHAAQWITTLRTYANPHLGARRVDQIETPDVLRALSPIWLTKGETARRVRQRIGTVLDWAKAAGHRTGDNPVESVAKGLPKQGERDEHHAALPYAEVPAFVTRLQSSDHGEAARLAFEFLILTAARTSEVLRAEWREIDEAEALWTVPAARMKAGREHRVPLSKRSLEIVRRAKLLAGDSAFIFPGRSTGKPMSNMVFLMALRRMKLTVTAHGFRSSFRDWAAEATSLPREVAEMALAHTIENRVEAAYRRGDLLAKRREMMEQWSTFVASKPKGDKPHKSSA | failed
MGGDARRALFVPAPSPTLHRMLPDALRDTLEERLDATIESVASVRGGCIANACRLETDAAPFFLKHGPDEVARTFPGEAAGLEALGAADSPLVVPSVHDTAPATDDRPGFLVMEWVNPGREGRRFWDRFGEGLAALHRHTADAYGFGQDNFIGRLPQSNAWTDDWPTFFREQRLAPQVDMARERGRWRDGWGTALTTLYRRLPDILPRSPEPSVLHGDLWKGNYLVTAVGDPALVDPATYYGHREADLAMTELFGGYDDRFYDAYRSAWGLAPEYGTRRDVYNLYHLINHLNLFGGGYAAQVEDTLRPFK | failed
MGGIARLYGDSALAHFSQAHVCVVGVGGVGSWAVEALARTGIGRLTLIDLDNVAESNVNRQLHALTGDFGKAKVTALRERITQINPQCEVFEIEDFVTEDNLPEYFGKGFDFVIDAIDQVRVKAAMAAYFVERKQPFVLSGGAGGQKNPALIQTADLSRVTHDPLLANLRYTLRKRYGFSRDTKANMRVPCVYSTENIVPPQSREACSADAAPQGLSCAGYGASMLVTASFGLYCAQAAVEHIADKKLEHHHHHH | failed
MGGKRHQNSGKGGKGRAKDAASAPQPNAGKVTLEGRSFLYVGGRDCQVAHLRQIASSYGAELIHHDGGLREAVSRIDRVLPSVDCVFCPIDCISHDACLRVKTGCKKWGKAFVPLRNGSKSSLEHHHHHH | not failed
MGGKTKKHAMRLFDRIAEKYDLLNRILSFGMDTKWRKRVVELILEVNPEKVLDLATGTGDVARLLKRKAPHLEITGLDSSSKMLEIAEKRLKDGEFIVGDAHNLPFYDRSFDAITVAFGFRNFSDRRRVLRECRRVLKRKGRLVILELLPPNTKRFTGKIYSFYLKTWVPFVGGLFSGDFHAYRYLSTSVLNFLTPDQIVEMMKEEGFEVSFEPLFFSVAGIFIGDLIWLEHHHHHH | failed
MGGMRWLLLAKQPALGGAAALEGVMMKAPWAWALAVRLPDGRIHVERHEERALTERYPWTRLPLLRGVVALFDALSVSYRALARSAELAGGEEVPRGALWGTVA | failed
MGGSFGKKGASSATAAQVPLATETTPGLMSPSEKLKLSTLTTSIATSDFYASYDFMMHSIGLTSANNISLLSTGNISLQNILSEGNHFGVQPIVSSTTANASFLAGMLMAIFPKESELEVTVYFKTPSAFNPAQLTVIGSTSIGLGISDRSGLIIENGNAFGGIVKASAATETGSTYALSTSTWYICKFKMLTDDRFKVTLYSDSGTQLYSYTSTAAMFRADNATAHIGFKTQCKTATAGISLISIDLIEFKAKVSATRAKV | not failed
MGHERDWSLVQVALTDITARKKAEAYLEYLGKHDVLTKLHNRAFYSDELNRLERSALRPVSAIVIDLNGLKEANDKLGHDAGDALLRRVGEVLNGVVTAPNHAARIGGDEFAILLPGADKQVAAAMVDTVYELLKINNQFYSSAPLSLSLGVATTEAGETMESLVRRADMNMYEQKNAYYAALRNRSADNNDTTKGLEHHHHHH | not failed
MGHHHHHHSHGLCYDLCRFGAVVAEDGYYVDEKKCEGCAFCFNVCPERAIEMENVKTGDLYVSKTEWGYFVHARLKPGEENTGRLVTEVKNRAKEIAEESNAEFLIVDSAPGVGCPVMASLTGVDAAIIVTEPTVSGLSDMLRILELCEHFRIRPFVVVNKFDLNVNIASEIESYCSENGVEFAGRVPFDKAIPEQIANLNFPFSGKAADKMVEIWKKLRE | failed
MGHHHHHHSHMGNIPEAIASYRTALKLKPDFPDAYCNLAHCLQIVCDWTDYDERMKKLVSIVADQLEKNRLPSVHPHHSMLYPLSHGFRKAIAERHGNLCLDKINVLHKPPYEHPKDLKLSDGRLRVGYVSSDFGNHPTSHLMQSIPGMHNPDK | failed
MGHHHHHHSHMIEHDPVKPRQLPKTIGCSKNFPGKTALATREQVQWWLLQLAQELEERLTKDRNDNDRVATQLVVSIRVQGDKRLSSLRRCCALTRYDAHKMSHDAFTVIKNCNTSGIQTEWSPPLTMLFLCATKFSASAP | not failed
